Experimental data as given in paper PMC10311653 (2023).

Target: hIL-1βQ15G (human)
Test: ELISA; apparent Kd

hIL-1βQ15G (human), sequence (chain, as listed by the source Q15G): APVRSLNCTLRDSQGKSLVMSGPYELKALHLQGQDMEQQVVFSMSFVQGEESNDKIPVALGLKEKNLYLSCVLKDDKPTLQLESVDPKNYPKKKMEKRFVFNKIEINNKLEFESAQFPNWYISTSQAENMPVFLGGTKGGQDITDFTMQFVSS

B1: Q15Kcr-G8-mFc (Fc fusion)
chain 1: EVQLQQSGAELVKPGASVKLSCTASDFNIKDTYIHWVKQRPEQGLEWIGRIDPADGNTKYDPKFQGKATITADTSSNTAYLQLSSLTSEDTAVYYCAIHYYGSFPYWGQGTLVTVSA
chain 2: DIVMTQAHKFMSTSVGDRVSITCQASQDVGTAVAWYQQKPGQSPKLLIYWASTRHTGVPDRFTGSGSGTDFTLTISNVQSEDLADYFCQQYSSYPYTFGGGTKLEIK
  Kd: 27.3 nM
